Test results as given in PMC9545174, “Discovery and characterization of SARS-CoV-2 reactive and neutralizing antibodies from humanized CAMouse^HG mice through rapid hybridoma screening and high-throughput single-cell V(D)J sequencing” (Frontiers in Immunology, 2022).
Numbering of substitutions follows the chain as printed.

B1: 18-4A (antibody, V domains shown)
VH: QVQLQQSGPGLVKPSQTLSLTCAISGDSVSNNSAAWNWIRQSPSRGLEWLGRTYYRSKWYNDYAVSVSSRITINPDTSKNQFSLQLNSVTPEDTAVYYCAREGALLWFGEGAFDYWGQGTLVTVSS
VL: EIVLTQSPGTLSLSPGERATLSCRASHIVSSSYLAWYQQKPGQAPRFLIYGASSRATGIPDRFSGSGSGTDFTLTISRLEPEDFAVYYCQQYAGSPFTFGPGTKVDIK
B2: 11-2G (antibody, V domains shown)
VH: QVQLQQAGPGLVKPSQTLSLTCAISGDSVSNNSAIWNWIRQSPSRGLEWLGRTYYRSKWYNDYAVSVSSRITINPDTSKNQFSLQLNSVTPEDTAVYYCARVDILTGYSFDYWGQGTLVTVSS
VL: EIVLTQSPGTLSLSPGERATLSCRASQSVSSSFLAWYQQKPGQAPRFLIYGESYRATGIPDRFSGSGSGTDFTLTISRLEPEDFAVYYCQQYGSSLTFGGGTKVEIK
B3: 4-1B (antibody, V domains shown)
VH: QVQLQQSGPGLVKPSQTLSLTCAISGDSVSNNSAAWNWIRQSPSRGLEWLGRTYYRSKWYNDYAVSVSSRITINPDTSKNQFSLQLNSVTPEDTAVYYCARGVYGSGPHAFDIWGQGTMVTVSS
VL: B2 VL with G51V, E52T, Y54N
B4: 4-2D (antibody, V domains shown)
VH: QVQLQQSGPGLVKPSQTLSLTCAISGDSVSNNSAAWNWIRQSPSRGLEWLGRTYYRSKWYNDYAVSVSSRITINPDTSKNQFSLQLNSVTPEDTAVYYCARGLWIPYYYGMDVWGQGTTVTVS
VL: B2 VL with S31N, S32I, Y54S, G100P, E105D
B5: 15-11F (antibody, V domains shown)
VH: QVQLQQSGPGLVKPSQTLSLTCAISGDSVSNNSAAWNWIRQSPSRGLEWLGRTYYRSKWYNDYAVSVSSRITINPDTSKNQFSLQLNSVTPEDTAVYYCARFSRLLGYGMDVWGQGTTVTVS
VL: B2 VL with S30I, F33Y, A35S, E52A, S53A, Y54S

Legend:
[1] = target: T1, wildtype SARS-CoV-2 RBD Protein (Severe acute respiratory syndrome …, UniProt P0DTC2); experiment: SPR; details: both partners purified
[2] = target: T1, wildtype SARS-CoV-2 RBD Protein; experiment: BLI; details: both partners purified

Row | Binder | Kd [1] | binding result [2]
1 | B1 | 0.234 nM | 
2 | B2 | 0.451 nM | 
3 | B3 |  | binds
4 | B4 |  | binds
5 | B5 |  | binds
